Laboratory results from publication PMC3868223 (Cytokine, 2013).

Molecular target: T1, IFN-γR1 (ligand-binding chain of the interferon-gamma receptor), fused to a fluorescent protein (UniProt P15260 18-489)
T1 sequence (looked up): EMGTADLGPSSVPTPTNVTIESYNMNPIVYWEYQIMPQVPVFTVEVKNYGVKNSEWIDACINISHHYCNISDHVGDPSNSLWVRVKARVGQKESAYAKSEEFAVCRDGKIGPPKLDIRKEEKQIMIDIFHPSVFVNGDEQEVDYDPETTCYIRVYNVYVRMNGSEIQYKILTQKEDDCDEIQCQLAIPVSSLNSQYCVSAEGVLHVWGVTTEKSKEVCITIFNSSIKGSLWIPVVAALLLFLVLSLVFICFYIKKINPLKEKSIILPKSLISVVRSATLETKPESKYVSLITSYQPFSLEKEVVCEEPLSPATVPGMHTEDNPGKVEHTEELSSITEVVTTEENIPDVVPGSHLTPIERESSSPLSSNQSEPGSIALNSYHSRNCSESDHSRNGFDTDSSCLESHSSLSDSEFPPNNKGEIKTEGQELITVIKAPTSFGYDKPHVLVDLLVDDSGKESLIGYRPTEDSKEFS
Assay: FRET or BRET

- fold higher apparent affinity than IFN-γR1 with DAF-ToFP: ~7 fold
B1: IFN-γR2 (accessory chain of the interferon-gamma receptor), fused to a fluorescent protein (receptor, UniProt P38484 22-337, looked up)
chain: APPDPLSQLPAPQHPKIRLYNAEQVLSWEPVALSNSTRPVVYQVQFKYTDSKWFTADIMSIGVNCTQITATECDFTAASPSAGFPMDFNVTLRLRAELGALHSAWVTMPWFQHYRNVTVGPPENIEVTPGEGSLIIRFSSPFDIADTSTAFFCYYVHYWEKGGIQQVKGPFRSNSISLDNLKPSRVYCLQVQAQLLWNKSNIFRVGHLSNISCYETMADASTELQQVILISVGTFSLLSVLAGACFFLVLKYRGLIKYWFHTPPSIPLQIEEYLKDPTQPILEALDKDSSPKDDVWDSVSIISFPEKEQEDVLQTL
